Measurements published in patent US20250368740A1 (SHENZHEN BAISHITONG TECHNOLOGY DEVELOPMENT, published 2025).
Where “and” joins values, the source holds several entries; their conditions need not be identical. Equal values may be shown once. Where no end group is shown, it is not given here. The star is where a group is joined. Biotin = O=C1N[C@H]2[C@H](CS[C@H]2CCCCC(=O)*)N1

How the values were obtained:
[1] = molecular target: T1, human CD276 on the surface of tumor cells (human, UniProt Q5ZPR3 29-534); experiment: flow cytometry on human renal cancer cells A498
T1 construct: whole, on cells; Endogenous expression on human tumor cell lines; also called CD276 on A498 cells
T1 sequence (looked up): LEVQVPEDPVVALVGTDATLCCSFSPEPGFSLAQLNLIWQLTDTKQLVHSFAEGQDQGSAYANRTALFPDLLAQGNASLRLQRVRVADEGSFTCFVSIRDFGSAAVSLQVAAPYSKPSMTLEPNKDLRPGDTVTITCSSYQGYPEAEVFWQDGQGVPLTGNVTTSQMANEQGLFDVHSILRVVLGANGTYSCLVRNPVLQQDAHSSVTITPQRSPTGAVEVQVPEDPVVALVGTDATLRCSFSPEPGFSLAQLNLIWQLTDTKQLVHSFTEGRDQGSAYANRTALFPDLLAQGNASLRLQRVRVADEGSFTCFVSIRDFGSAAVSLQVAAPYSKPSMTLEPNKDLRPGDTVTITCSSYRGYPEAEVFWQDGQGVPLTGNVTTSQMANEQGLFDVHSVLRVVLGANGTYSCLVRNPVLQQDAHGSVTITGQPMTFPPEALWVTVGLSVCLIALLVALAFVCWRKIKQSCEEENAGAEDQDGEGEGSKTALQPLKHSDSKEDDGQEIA
Description: In this experiment, human renal cancer cells A498 were used as the target cells. […] The cells were washed twice with PBS to remove those secondary antibody unbinding to the cells and then resuspended in 100 μL PBS.

[2] = molecular target: T2, crab-eating macaque CD276-ECD (crab-eating macaque, UniProt Q5ZPR3 217-452 (human entry)); experiment: indirect ELISA, plate coated with crab-eating macaque CD276-ECD
T2 construct: Purchased from Acro BIOSYSTEMS; also called crab-eating macaque CD276-ECD protein; crab-eating macaque CD276-ECD antigen
T2 chain: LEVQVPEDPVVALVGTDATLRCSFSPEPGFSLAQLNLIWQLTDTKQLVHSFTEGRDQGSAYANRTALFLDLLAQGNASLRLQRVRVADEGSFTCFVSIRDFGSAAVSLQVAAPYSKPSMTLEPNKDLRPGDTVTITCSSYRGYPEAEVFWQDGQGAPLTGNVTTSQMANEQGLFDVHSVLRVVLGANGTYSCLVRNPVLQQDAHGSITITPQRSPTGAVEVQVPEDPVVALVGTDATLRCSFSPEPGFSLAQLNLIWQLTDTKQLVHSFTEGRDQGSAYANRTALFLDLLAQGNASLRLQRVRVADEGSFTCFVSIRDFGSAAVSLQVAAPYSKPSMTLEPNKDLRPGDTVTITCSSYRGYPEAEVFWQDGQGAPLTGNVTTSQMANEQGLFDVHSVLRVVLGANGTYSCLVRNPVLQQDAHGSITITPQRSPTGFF
Description: (§1) The specific method was as follows: The plates were pre-coated with crab-eating macaque and mouse CD276-ECD proteins diluted to 2 μg/mL in the coating solution (50 mM carbonate coating buffer, pH 9.6) and incubated at 4° C. overnight. The plates were then blocked with 5% skim milk powder at 37° C. for 2 hours. Afterward, the plates were washed 3 times with PBST, and the to-be-tested antibody, diluted in 1% BSA-PBST at various gradients, was added to the blocked plates at 100 μL per well. The plates were incubated at 37° C. for 1 hour. After washing the plates 3 times with PBST, HRP-conjugated goat anti-mouse IgG secondary antibody (purchased from Millipore) was added, and the plates were incubated at 37° C. for 30 minutes. After 3 more washes with PBST, residual droplets were removed by blotting on absorbent paper. Then, 100 μL of TMB substrate (purchased from KPL) was added to each well, and the plates were incubated at room temperature (20±5° C.) in the dark for 5 minutes. Finally, 50 μL of 2 M H2SO4 was added to each well to terminate the substrate reaction, and the OD value at 450 nm was read using a microplate reader to analyze the binding ability of the to-be-tested antibody to the target antigens, i.e., crab-eating macaque and mouse CD276-ECD proteins.

[3] = molecular target: T3, C2-type 1-Fc (human); experiment: Western blot on Fc fusion proteins of the domains
T3 construct: Expressed in Expi-293F cells, purified on Protein A, tested by Western blot; also called Ig-like C2-type 1 (Domain 2) of human CD276-ECD linked to human Fc; second functional domain of human CD276-ECD

[4] = molecular target: T4, mouse CD276-ECD (mouse, UniProt Q8VE98 29-244); experiment: indirect ELISA, plate coated with 2 µg/mL mouse CD276-ECD
T4 construct: Purchased from Acro BIOSYSTEMS; also called mouse CD276-ECD protein
T4 sequence: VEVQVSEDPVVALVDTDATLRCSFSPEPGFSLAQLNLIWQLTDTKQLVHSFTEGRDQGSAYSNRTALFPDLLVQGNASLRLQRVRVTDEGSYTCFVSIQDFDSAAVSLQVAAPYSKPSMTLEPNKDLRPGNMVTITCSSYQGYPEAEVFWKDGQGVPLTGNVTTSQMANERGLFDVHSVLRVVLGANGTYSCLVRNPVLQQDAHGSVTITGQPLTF
Description: as §1

[5] = molecular target: T5, recombinant human CD276-ECD protein (human, UniProt Q5ZPR3 29-255); experiment: indirect ELISA, plate coated with human CD276-ECD
T5 construct: Purchased from Acro BIOSYSTEMS; Used native (ELISA) and reduced and denatured (Western blot); also called B7-H3
T5 sequence: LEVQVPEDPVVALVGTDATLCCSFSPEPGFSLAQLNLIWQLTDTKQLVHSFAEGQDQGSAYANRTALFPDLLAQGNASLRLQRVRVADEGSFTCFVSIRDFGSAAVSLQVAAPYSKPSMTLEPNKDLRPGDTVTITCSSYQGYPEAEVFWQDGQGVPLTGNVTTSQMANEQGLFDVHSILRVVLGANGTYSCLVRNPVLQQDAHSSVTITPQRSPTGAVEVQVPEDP

[6] = molecular target: T6, peptide 1-6, bio-PSMTL APNKD LRPGDTVTI (145-164); experiment: ELISA on biotin-labeled alanine-scan peptides
T6 construct: Alanine-scan variant of peptide 1
T6 peptide: Biotin-PSMTLAPNKDLRPGDTVTI

[7] = molecular target: T7, peptide 1-3, bio-PS ATLEPNKD LRPGDTVTI (145-164); experiment: ELISA on biotin-labeled alanine-scan peptides
T7 construct: Alanine-scan variant of peptide 1
T7 peptide: Biotin-PSATLEPNKDLRPGDTVTI

[8] = molecular target: T8, peptide 1-16, bio-PSMTLEPNKD LRPGD AVTI (145-164); experiment: ELISA on biotin-labeled alanine-scan peptides
T8 construct: Alanine-scan variant of peptide 1
T8 peptide: Biotin-PSMTLEPNKDLRPGDAVTI

[9] = molecular target: T9, peptide 1-18, bio-PSMTLEPNKD LRPGDTV AI (145-164); experiment: ELISA on biotin-labeled alanine-scan peptides
T9 construct: Alanine-scan variant of peptide 1
T9 peptide: Biotin-PSMTLEPNKDLRPGDTVAI

[10] = molecular target: T10, peptide 1-17, bio-PSMTLEPNKD LRPGDT ATI (145-164); experiment: ELISA on biotin-labeled alanine-scan peptides
T10 construct: Alanine-scan variant of peptide 1
T10 peptide: Biotin-PSMTLEPNKDLRPGDTATI

[11] = molecular target: T11, peptide 1-4, bio-PSM ALEPNKD LRPGDTVTI (145-164); experiment: ELISA on biotin-labeled alanine-scan peptides
T11 construct: Alanine-scan variant of peptide 1
T11 peptide: Biotin-PSMALEPNKDLRPGDTVTI

[12] = molecular target: T12, peptide 1-5, bio-PSMT AEPNKD LRPGDTVTI (145-164); experiment: ELISA on biotin-labeled alanine-scan peptides
T12 construct: Alanine-scan variant of peptide 1
T12 peptide: Biotin-PSMTAEPNKDLRPGDTVTI

[13] = molecular target: T13, peptide 1-8, bio-PSMTLEP AKD LRPGDTVTI (145-164); experiment: ELISA on biotin-labeled alanine-scan peptides
T13 construct: Alanine-scan variant of peptide 1
T13 peptide: Biotin-PSMTLEPAKDLRPGDTVTI

[14] = molecular target: T14, peptide 1-9, bio-PSMTLEPN AD LRPGDTVTI (145-164); experiment: ELISA on biotin-labeled alanine-scan peptides
T14 construct: Alanine-scan variant of peptide 1
T14 peptide: Biotin-PSMTLEPNADLRPGDTVTI

[15] = molecular target: T15, peptide 1-19, bio-PSMTLEPNKD LRPGDTVT A (145-164); experiment: ELISA on biotin-labeled alanine-scan peptides
T15 construct: Alanine-scan variant of peptide 1
T15 peptide: Biotin-PSMTLEPNKDLRPGDTVTA

[16] = molecular target: T16, peptide 1-2, bio-P AMTLEPNKD LRPGDTVTI (145-164); experiment: ELISA on biotin-labeled alanine-scan peptides
T16 construct: Alanine-scan variant of peptide 1
T16 peptide: Biotin-PAMTLEPNKDLRPGDTVTI

[17] = molecular target: T17, peptide 1-13, bio-PSMTLEPNKD LR AGDTVTI (145-164); experiment: ELISA on biotin-labeled alanine-scan peptides
T17 construct: Alanine-scan variant of peptide 1
T17 peptide: Biotin-PSMTLEPNKDLRAGDTVTI

[18] = molecular target: T18, peptide 1-1, bio-ASMTLEPNKD LRPGDTVTI (145-164); experiment: ELISA on biotin-labeled alanine-scan peptides
T18 construct: Alanine-scan variant of peptide 1
T18 peptide: Biotin-ASMTLEPNKDLRPGDTVTI

[19] = molecular target: T19, biotinylated human CD122/132 (human, UniProt P14784 27-239; P31785 23-254, limits assumed, biotinylated (site not stated)); experiment: sandwich ELISA: antibody on coated human CD276-ECD, biotinylated CD122/132 detected with SA-HRP
T19 construct: Bought heterodimeric reagent; also called CD122/CD132
T19 sequence (looked up) 1: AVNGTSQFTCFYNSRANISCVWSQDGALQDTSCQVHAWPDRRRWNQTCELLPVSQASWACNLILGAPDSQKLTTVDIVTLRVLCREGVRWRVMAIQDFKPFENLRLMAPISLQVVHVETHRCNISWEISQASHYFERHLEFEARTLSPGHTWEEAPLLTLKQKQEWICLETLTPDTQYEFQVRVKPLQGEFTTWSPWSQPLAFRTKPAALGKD
T19 sequence (looked up) 2: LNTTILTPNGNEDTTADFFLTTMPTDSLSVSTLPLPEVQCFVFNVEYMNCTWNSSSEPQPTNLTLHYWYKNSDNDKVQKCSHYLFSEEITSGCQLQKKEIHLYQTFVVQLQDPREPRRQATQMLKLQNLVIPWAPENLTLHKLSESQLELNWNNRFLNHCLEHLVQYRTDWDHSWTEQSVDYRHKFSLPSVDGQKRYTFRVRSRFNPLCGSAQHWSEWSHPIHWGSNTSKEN
Description: The method was as follows: The plates were pre-coated with human CD276-ECD protein diluted to 2 μg/mL in the coating solution (50 mM carbonate coating buffer, pH 9.6) and incubated at 4° C. overnight. The plates were then blocked with 5% skim milk powder at 37° C. for 2 hours. Afterward, the plates were washed 3 times with PBST, and the to-be-tested antibody, diluted in 1% BSA-PBST at various gradients, was added to the blocked plates at 100 μL per well. The plates were incubated at 37° C. for 1 hour. […] Following 3 additional washes with PBST, diluted HRP-conjugated streptavidin (SA) (purchased from Pierce) was added, and the plates were incubated at 37° C. for 30 minutes. After 3 more washes with PBST, residual droplets were removed by blotting on absorbent paper. Then, 100 μL of TMB substrate (purchased from KPL) was added to each well, and the plates were incubated at room temperature (20±5° C.) in the dark for 5 minutes.
As a control, hu147 could bind to CD276 (as shown in Embodiment 8), but not CD122/CD132.

T3 sequence (chain, as listed by the source limits assumed): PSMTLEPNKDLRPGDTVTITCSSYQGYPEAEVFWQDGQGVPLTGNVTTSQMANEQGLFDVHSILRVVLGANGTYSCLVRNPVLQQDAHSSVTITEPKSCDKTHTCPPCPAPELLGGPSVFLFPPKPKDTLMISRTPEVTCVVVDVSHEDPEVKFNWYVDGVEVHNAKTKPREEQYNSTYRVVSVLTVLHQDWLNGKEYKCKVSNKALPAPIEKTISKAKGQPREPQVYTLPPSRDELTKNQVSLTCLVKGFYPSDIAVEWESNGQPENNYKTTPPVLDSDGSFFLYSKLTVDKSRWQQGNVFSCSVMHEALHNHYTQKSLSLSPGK

B1: murine monoclonal antibody 147# (antibody, V domains shown)
VH: QVQLKQSGIELVRPGASVKLSCKTSGYIFTADWIYWVKQRSGQGLEWIGRIYPGVDSTYYNEKFKDKAILTADKSSSTAYMQLNSLKSEDSAVYFCARGGEVRRDFYALDYWGQGTSVTVSS
VL: NIVMTQSPESMSMSLGERVTLSCKASENVGTYVSWYQQKPEQSPKLLIYGASNRYTGVPARFTGSGSATDFTLTISSVQAEDLADYHCGQRYSYPFTFGSGTKLEIK
notes: Murine antibody purified from hybridoma supernatant by Protein G and detected with anti-mouse IgG
EC50 [1]: 0.0592 µg/mL and 0.39 nM | EC50 [2]: 0.0302 µg/mL and 0.2 nM | binding result [3]: binds | binding result [4]: no binding | EC50 [5]: 0.0384 µg/mL and 0.26 nM | binding result [6]: binds | binding result [7]: binds | binding result [8]: binds | binding result [9]: binds | binding result [10]: binds | binding result [11]: binds | binding result [12]: binds | binding result [13]: binds | binding result [14]: binds | binding result [15]: binds | binding result [16]: binds | binding result [17]: binds | binding result [18]: binds

B2: humanized antibody hu147 (antibody)
heavy: not shown
light: EIVMTQSPPTLSLSPGERVTLSCRASENVGTYVSWYQQKPGQAPRLLIYGASNRYTGIPARFSGSGSGTDFTLTISSLQPEDFAVYYCGQRYSYPFTFGGGTKLEIKRTVAAPSVFIFPPSDEQLKSGTASVVCLLNNFYPREAKVQWKVDNALQSGNSQESVTEQDSKDSTYSLSSTLTLSKADYEKHKVYACEVTHQGLSSPVTKSFNRGEC
notes: Human IgG1 / kappa; also called hul47
binding result [19]: no binding | EC50 [5]: 0.0067 µg/mL and 0.04 nM

B3: Fc-mutated humanized antibody hu147mu (antibody, human IgG1, kappa)
heavy: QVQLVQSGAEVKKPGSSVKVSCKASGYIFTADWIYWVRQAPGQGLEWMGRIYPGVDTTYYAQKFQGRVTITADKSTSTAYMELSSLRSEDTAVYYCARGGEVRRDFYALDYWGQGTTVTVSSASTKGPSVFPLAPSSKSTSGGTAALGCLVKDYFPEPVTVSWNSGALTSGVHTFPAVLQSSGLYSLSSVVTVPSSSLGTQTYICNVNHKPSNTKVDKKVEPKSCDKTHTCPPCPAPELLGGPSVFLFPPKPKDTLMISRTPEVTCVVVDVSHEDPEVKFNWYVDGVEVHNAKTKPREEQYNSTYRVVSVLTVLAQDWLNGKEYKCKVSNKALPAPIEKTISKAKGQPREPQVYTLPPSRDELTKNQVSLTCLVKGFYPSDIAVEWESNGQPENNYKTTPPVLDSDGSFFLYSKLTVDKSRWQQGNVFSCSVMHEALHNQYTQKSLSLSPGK
light: EIVMTQSPPTLSLSPGERVTLSCRASENVGTYVSWYQQKPGQAPRLLIYGASNRYTGIPARFSGSGSGTDFTLTISSLQPEDFAVYYCGQRYSYPFTFGGGTKLEIKRTVAAPSVFIFPPSDEQLKSGTASVVCLLNNFYPREAKVQWKVDNALQSGNSQESVTEQDSKDSTYSLSSTLTLSKADYEKHKVYACEVTHQGLSSPVTKSFNRGEC
notes: about 150 kDa; also called hul47mu
EC50 [5]: 0.0068 µg/mL and 0.05 nM
